This note sets out measurements from PMC6351632.

In this assay the target is Fasciola hepatica Sigma class glutathione transferase 1 (Fasciola hepatica). The assay can be described thus: crystal structure; FhGST-S1 with glutathione (holo/CGL and GSSG complexes), microbatch, 0.15 M KBr, 20% PEG 3350; space group P212121, two subunits forming a dimer related by a molecular dyad.

Consider “Fasciola hepatica Sigma class glutathione transferase 1 (enzyme)”, for which the stoichiometry N came out at 2.
